Reference: the Human Domainome abundance scans (Beltran et al. 2025)

B1: Intersectin-1, residues 909 to 971; numbered along this chain, Q15811 (parent)
chain: QGEKVEGLQAQALYPWRAKKDNHLNFNKNDVITVLEQQDMWWFGEVQGQKGWFPKSYVKLISG
B2: Chromodomain-helicase-DNA-binding protein 4, residues 444 to 496; numbered along this chain, Q14839 (parent)
chain: EDDHHMEFCRVCKDGGELLCCDTCPSSYHIHCLNPPLPEIPNGEWLCPRCTCP

Variants of: B1
Assay: abundance fitness (aPCA) (normalised: wild type 0, dead -1); higher = more abundant; growth selection in yeast, the domain comes from the species named
Settings: Homo sapiens

Abundance fitness, by site and new letter:
S62: A 0.062; P -0.21; Y -0.626; T -0.209; R -0.101; W -0.075; E -0.398; D -0.041; N -0.151; L -0.084; C -0.089; G -0.129; V -0.253; F -0.63; Q 0.067; I -0.165; H -0.362; K -0.158
G63: A -0.058; D 0.07; S -0.278; L -0.077; W -0.276; T 0.032; M 0.011; P -0.01; I -0.151; R -0.029; Q -0.248; C 0.026
I61: S -0.301; W -0.274; V 0.095; T -0.137; Y -0.223; R -0.155

Variants of: B2
Assay: as above
Settings: Homo sapiens

Abundance fitness of substitutions, site by site:
C9: W -0.844; P -0.797; K -0.54; E -0.483; Y -0.979; G -0.535; T -0.815; S -0.849; M -0.98; Q -0.668; I -0.827; D -0.601; R -0.571; N -0.689; V -0.988; A -0.777; H -0.79
K13: E 0.214; D -0.243; G -0.01; A 0.085; P -1.08; N -0.199; H -0.286; L -0.129; Q -0.024; V -0.303; S -0.101; R -0.087; M -0.2; T -0.134; W -0.139; Y -0.375; F -0.267; C -0.126
D14: V -0.089; H -0.18; R -0.057; T -0.1; I -0.196; Q 0.209; Y -0.412; S 0.018; G 0.152; L 0.023; P -1.02; N -0.205; M -0.139; F -0.34; A -0.068; E 0.223; K 0.074; W -0.418
M6: H -0.713; S -0.147; A 0.023; D 0.023; Q -0.508; W -0.231; I -0.021; L -0.665; F -0.204; R -0.477; C -0.207; T 0.028; G -0.056; N -0.055
H4: C 0.032; D 0.125; R -0.04; S -0.409; N 0.197; Y 0.078; V -0.008; Q -0.058; M 0.107; E -0.126; W -0.126; K 0.119; F 0.301; L -0.162; A -0.14; P -0.294; I 0.025; T -0.004
D2: M 0.278; F 0.463; L 0.163; S 0.202; W -0.334; H -0.036; G 0.26; C -0.425; N 0.091; E 0.188; V 0.217; R 0.033; K 0.378; Y 0.016; A 0.05
H5: C 0.068; R 0.096; G 0.106; P -0.11; Q 0.074; A 0.092; V -0.135; N -0.006; T 0.019; I 0.165; E 0.116; Y 0.097; F 0.219; L -0.305; M -0.12; S -0.129; K 0.199; W 0.02
G16: M -0.579; H -0.831; P -1.18; F -0.556; D -0.275; A -0.558; T -0.432; E 0.019; Q -0.559; Y -0.83; K -0.143; C -0.985; W -0.906; N -0.186; V -0.842; I -0.74; L -0.7; S -0.279; R -0.424
E17: Y -0.644; L -0.535; S -0.184; N -0.077; H -0.906; R -0.123; M -0.098; K 0.117; T 0.015; V -0.215; G -0.289; Q -0.146; D -0.232; P -0.657; F -0.395; A -0.309; C -0.382; I -0.206; W -0.576
V11: G -0.135; T -0.019; A -0.316; C -0.255; Y -0.377; N -0.104; D -0.103; R 0.012; W -0.209; P -0.877; S -0.159; Q -0.037; M -0.026; F -0.359; L -0.214; I -0.074
F8: C -0.048; A -0.103; V 0.012; E 0.138; K -0.103; W -0.041; I -0.019; P -0.388; G 0.086; L -0.164; M -0.073; N -0.044; T -0.091; H -0.249; R -0.033; D -0.166; S -0.124
E7: N -0.664; S -0.364; T -0.618; I -0.481; V -0.205; G -0.239; Q -0.224; R -0.174; D -0.048; K -0.492; F -0.002; P -0.401; L -0.121; M -0.433; H -0.22; W -0.599; Y -0.813; A -0.366; C -0.15
G15: S -0.061; I -0.397; W -0.317; Y -0.251; V -0.115; M -0.102; N -0.179; Q -0.126; L -0.486; T 0.012; D -0.274; C -0.508; K 0.08; F -0.263; P -0.154; E 0.057
C12: E -0.124; H -0.83; S -0.971; G -0.53; Q -0.928; I -0.73; Y -0.557; F -0.896; T -0.769; N -0.663; K -0.607; M -1.19; W -0.822; A -0.74; P -1.12; L -1.11; V -0.7; R -0.931; D -0.749
R10: M -0.301; V -0.056; Q 0.086; K 0.124; C 0.003; N 0.003; D -0.142; P -0.274; H -0.137; A -0.17; W 0.122; Y -0.009; T 0.028; F 0.059; L -0.021; I -0.014; E -0.07; G -0.349
L18: E -0.744; D -1.3; C -0.761; A -0.682
E1: R -0.625; N 0.354; T -0.221; Y -0.175; S -0.507; G -0.289; I -0.265; M 0.156; V -0.059; P -0.436; Q -0.486; D -0.693; W -0.898; F -0.306; L -0.235; A -0.531
D3: A -0.211; P -0.174; V -0.174; W 0.201; C 0.27; K 0.304; R 0.06; M 0.397; Q 0.221; E -0.187; Y 0.319; H 0.1; S 0.105; I 0.393; G -0.292; L 0.342; T 0.277
